Laboratory results as given in patent publication US20240116985A1, “STAPLED PEPTIDES AND METHODS THEREOF” (priority 2020, published 2024).
Starred links: 1 amine or outer side, 2 acyl side, 3 side chain; linkers in the order of their positions; H or OH if unused. Positions of bridges follow the written chain, without caps; N, C: chain ends. Non-standard residues stand in square brackets, D forms with d. Primed or numbered codes have the meaning given here. PyrS2″ = (S)-3-amino-1-((pent-4-en-1-yloxy)carbonyl)pyrrolidine-3-carboxylic acid (stapling residue), C=CCCCOC(=O)N1CC[C@@](N[*:1])(C(=O)[*:2])C1; B5(18) = 2,2-bis(4-pentenyl)glycine (2-amino-2-(pent-4-en-1-yl)hept-6-enoic acid), stitching residue, C=CCCCC(CCCC=C)(N[*:1])C(=O)[*:2]; B5(4) = 2,2-bis(4-pentenyl)glycine = 2-amino-2-(pent-4-en-1-yl)hept-6-enoic acid (stitching residue), C=CCCCC(CCCC=C)(N[*:1])C(=O)[*:2]; B5(5) = 2,2-bis(4-pentenyl)glycine, 2-amino-2-(pent-4-en-1-yl)hept-6-enoic acid (stitching residue), C=CCCCC(CCCC=C)(N[*:1])C(=O)[*:2]; B5(8) = 2,2-bis(4-pentenyl)glycine (2-amino-2-(pent-4-en-1-yl)hept-6-enoic acid, stitching residue), C=CCCCC(CCCC=C)(N[*:1])C(=O)[*:2]; TfeGA = (S)-2-amino-3-((carboxymethyl)(2,2,2-trifluoroethyl)amino)propanoic acid, O=C([C@H](CN(CC(=O)[*:3])CC(F)(F)F)N[*:1])[*:2]; PyrS2 = (S)-3-amino-1-((pent-4-en-1-yloxy)carbonyl)pyrrolidine-3-carboxylic acid, C=CCCCOC(=O)N1CC[C@@](N[*:1])(C(=O)[*:2])C1; PyrS3 = (S)-3-amino-1-((hex-5-en-1-yloxy)carbonyl)pyrrolidine-3-carboxylic acid, C=CCCCCOC(=O)N1CC[C@@](N[*:1])(C(=O)[*:2])C1; B5(13) = 2-amino-2-(pent-4-en-1-yl)hept-6-enoic acid (two alkene chains), C=CCCCC(CCCC=C)(N[*:1])C(=O)[*:2]; B5(3) = 2,2-bis(4-pentenyl)glycine (stitching residue), C=CCCCC(CCCC=C)(N[*:1])C(=O)[*:2]; B5 = 2-amino-2-(pent-4-en-1-yl)hept-6-enoic acid, C=CCCCC(CCCC=C)(N[*:1])C(=O)[*:2]; Phe(2-Cl) = N[C@@H](Cc1ccccc1Cl)C(=O)O; 2Nal = N[C@@H](Cc1ccc2ccccc2c1)C(=O)O; Bta = N[C@@H](Cc1csc2ccccc12)C(=O)O; αAllylPro = C=CC[C@@]1(C(=O)O)CCCN1; tBuAla = CC(C)(C)C[C@H](N)C(=O)O; 3Thi = N[C@@H](Cc1ccsc1)C(=O)O; S8 = C=CCCCCCC[C@](C)(N)C(=O)O; hLeu = CC(C)CC[C@H](N)C(=O)O

How the values were obtained:
[1] = biological target: Bcat-Halo (UniProt P35222); assay: NanoBRET Abs IC50, Bcat-Halo/TCF4-Luc in HEK293 cells
[2] = biological target: full-length beta-Catenin (Uniprot ID P35222) (Homo sapiens (Human)) (UniProt P35222); assay: fluorescence polarization competition; displaces 5FAM-TCF4(10-53) from full-length beta-catenin
Target sequence in this assay (P35222 2-781 limits assumed): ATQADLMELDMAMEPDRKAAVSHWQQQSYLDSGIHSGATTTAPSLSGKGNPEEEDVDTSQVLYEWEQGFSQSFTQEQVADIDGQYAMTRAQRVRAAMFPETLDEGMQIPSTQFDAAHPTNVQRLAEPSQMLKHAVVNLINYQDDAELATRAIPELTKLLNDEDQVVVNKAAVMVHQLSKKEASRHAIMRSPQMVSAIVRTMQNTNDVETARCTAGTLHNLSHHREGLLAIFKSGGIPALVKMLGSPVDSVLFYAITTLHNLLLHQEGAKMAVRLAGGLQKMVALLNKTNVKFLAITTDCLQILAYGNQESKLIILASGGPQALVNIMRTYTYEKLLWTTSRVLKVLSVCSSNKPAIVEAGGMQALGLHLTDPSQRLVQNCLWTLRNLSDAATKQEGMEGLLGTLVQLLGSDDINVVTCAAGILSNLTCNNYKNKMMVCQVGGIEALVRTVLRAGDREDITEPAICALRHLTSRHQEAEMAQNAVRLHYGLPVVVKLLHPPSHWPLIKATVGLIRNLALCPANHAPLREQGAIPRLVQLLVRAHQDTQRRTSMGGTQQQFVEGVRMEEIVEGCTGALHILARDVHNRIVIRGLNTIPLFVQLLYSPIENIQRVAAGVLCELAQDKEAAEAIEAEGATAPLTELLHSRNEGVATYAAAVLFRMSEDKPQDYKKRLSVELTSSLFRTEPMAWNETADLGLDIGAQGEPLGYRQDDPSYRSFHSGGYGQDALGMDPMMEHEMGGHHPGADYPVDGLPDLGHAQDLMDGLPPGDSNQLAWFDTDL

[3] = biological target: full-length beta-Catenin (Uniprot ID P35222) (Homo sapiens (Human)) (UniProt P35222); assay: fluorescence polarization competition; full-length beta-catenin; competitor displaced: 5FAM-TCF4 10-53
Target sequence in this assay (P35222 2-781 limits assumed): as above

[4] = biological target: full-length beta-Catenin (Uniprot ID P35222) (Homo sapiens (Human)) (UniProt P35222); assay: fluorescence polarization competition; full-length beta-catenin + 5FAM-TCF4(10-53) probe; peptide titrated
Target sequence in this assay (P35222 2-781 limits assumed): as above

[5] = biological target: full-length beta-Catenin (Uniprot ID P35222) (Homo sapiens (Human)) (UniProt P35222); assay: fluorescence polarization competition; peptide titrated against full-length beta-catenin + 5FAM-TCF4(10-53)
Target sequence in this assay (P35222 whole entry, the tested form may be a part): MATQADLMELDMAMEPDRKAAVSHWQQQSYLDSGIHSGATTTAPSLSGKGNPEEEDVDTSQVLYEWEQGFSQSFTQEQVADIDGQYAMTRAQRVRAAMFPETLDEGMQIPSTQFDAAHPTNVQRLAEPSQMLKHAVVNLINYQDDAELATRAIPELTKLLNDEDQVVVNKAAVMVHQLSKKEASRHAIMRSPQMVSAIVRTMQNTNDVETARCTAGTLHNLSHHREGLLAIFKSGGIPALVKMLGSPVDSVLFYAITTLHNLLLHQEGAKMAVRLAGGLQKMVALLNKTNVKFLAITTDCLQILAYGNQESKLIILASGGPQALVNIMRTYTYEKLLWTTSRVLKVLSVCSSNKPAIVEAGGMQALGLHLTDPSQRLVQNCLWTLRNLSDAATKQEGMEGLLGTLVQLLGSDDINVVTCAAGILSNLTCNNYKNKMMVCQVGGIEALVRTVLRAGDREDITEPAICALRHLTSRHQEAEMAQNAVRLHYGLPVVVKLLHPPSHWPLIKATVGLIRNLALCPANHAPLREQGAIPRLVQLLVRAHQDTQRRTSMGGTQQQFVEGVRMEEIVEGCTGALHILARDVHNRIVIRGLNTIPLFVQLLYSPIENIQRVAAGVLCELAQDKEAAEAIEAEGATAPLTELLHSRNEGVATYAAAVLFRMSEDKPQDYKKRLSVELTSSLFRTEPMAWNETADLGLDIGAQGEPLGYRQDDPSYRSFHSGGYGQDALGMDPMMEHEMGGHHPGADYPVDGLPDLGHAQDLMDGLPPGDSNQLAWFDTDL

[6] = biological target: full-length beta-Catenin (Uniprot ID P35222) (Homo sapiens (Human)) (UniProt P35222); assay: fluorescence polarization competition; full-length beta-catenin with 5FAM-labeled TCF4 residues 10-53 probe as competitor
Target sequence in this assay (P35222 whole entry, the tested form may be a part): as above

[7] = biological target: full-length beta-Catenin (Uniprot ID P35222) (Homo sapiens (Human)) (UniProt P35222); assay: fluorescence polarization competition; 10 nM full-length beta-catenin + 10 nM 5FAM-TCF4(10-53) probe
Target sequence in this assay (P35222 whole entry, the tested form may be a part): as above

[8] = biological target: full-length beta-Catenin (Uniprot ID P35222) (Homo sapiens (Human)) (UniProt P35222); assay: fluorescence polarization competition; peptide displaces 5FAM-TCF4(10-53) from full-length beta-catenin
Target sequence in this assay (P35222 2-781 limits assumed): as the sequence (P35222 2-781 limits assumed) above

[9] = biological target: full-length beta-Catenin (Uniprot ID P35222) (Homo sapiens (Human)) (UniProt P35222); assay: fluorescence polarization competition: peptide titrated against 10 nM full-length beta-catenin + 10 nM 5FAM-TCF4(10-53) probe
Target sequence in this assay (P35222 2-781 limits assumed): as above

[10] = biological target: full-length beta-Catenin (Uniprot ID P35222) (Homo sapiens (Human)) (UniProt P35222); assay: fluorescence polarization competition; full-length beta-catenin, competitor 5FAM-TCF4(10-53) probe
Target sequence in this assay (P35222 2-781 limits assumed): as above

Sequence of Bcat-Halo (P35222 whole entry): as the sequence (P35222 whole entry, the tested form may be a part) above

B1: I-1019 (peptide)
peptide: Ac-[αAllylPro]D[tBuAla][B5(18)]DDAAFS[PyrS2″][Phe(2-Cl)][Bta]S-NH2
modifications: staple 1-4, 4-11
With B1 the IC50 [1] was 9.6 µM and the EC50 [2] was 0.005 µM.

B2: I-695 (peptide)
peptide: Ac-[αAllylPro]D[tBuAla][B5(8)]DDAAFN[PyrS2″][3Thi][Bta]H-NH2
modifications: staple 1-4, 4-11
For B2, the IC50 [3] was 0.005 µM and the EC50 [4] was 0.005 µM.

B3: I-699 (peptide)
peptide: Ac-[αAllylPro]DI[B5(8)]D[TfeGA]AAFN[S8]F[Bta]Q-NH2
modifications: staple 1-4, 4-11
Binder B3 has an IC50 [3] of 0.043 µM and an EC50 [4] of 0.043 µM.

B4: I-716 (peptide)
peptide: Ac-[αAllylPro]DL[B5]DEAAFN[S8][3Thi][Bta]-NH2
modifications: staple 1-4, 4-11
Binder B4 has an IC50 [5] of 0.091 µM and an EC50 [6] of 0.091 µM.

B5: I-1007 (peptide)
peptide: Ac-[αAllylPro]D[tBuAla][B5(18)]D[TfeGA]LAFN[PyrS2″][Phe(2-Cl)][Bta]Q-NH2
modifications: staple 1-4, 4-11
B5 showed an IC50 [1] of 24.9 µM, an EC50 [2] of 0.006 µM and an IC50 [7] of 0.006 µM.

B6: I-793 (peptide)
peptide: Ac-[αAllylPro]D[tBuAla][B5(3)]DDAAFN[PyrS2][Bta][Bta]H-NH2
modifications: staple 1-4, 4-11
For B6, the IC50 [8] was 0.014 µM and the EC50 [9] was 0.014 µM.

B7: I-1017 (peptide)
peptide: Ac-[αAllylPro]D[tBuAla][B5(18)]DDAAFS[PyrS2″][Phe(2-Cl)][Bta]Q-NH2
modifications: staple 1-4, 4-11
With B7 the IC50 [1] was 8.9 µM, the EC50 [2] was 0.005 µM and the IC50 [7] was 0.005 µM.

B8: I-702 (peptide)
peptide: Ac-[αAllylPro]DI[B5(8)]D[TfeGA]AAFN[S8][3Thi][Bta]H-NH2
modifications: staple 1-4, 4-11
B8 was tested, and the IC50 [3] was 0.076 µM and the EC50 [4] was 0.076 µM.

B9: I-714 (peptide)
peptide: Ac-[αAllylPro]DI[B5(3)]DEAAFN[S8]F[Bta]-NH2
modifications: staple 1-4, 4-11
In the case of B9, the IC50 [5] is reported as 0.131 µM and the EC50 [6] is reported as 0.131 µM.

B10: I-698 (peptide)
peptide: Ac-[αAllylPro]D[tBuAla][B5(8)]DEAAFN[PyrS2″][3Thi][Bta]H-NH2
modifications: staple 1-4, 4-11
Work on B10 yielded an IC50 [3] of 0.005 µM and an EC50 [4] of 0.005 µM.

B11: I-776 (peptide)
peptide: Ac-[αAllylPro]D[tBuAla][B5(13)]DDAAFN[PyrS3][3Thi][Bta]H-NH2
modifications: staple 1-4, 4-11
Work on B11 yielded an EC50 [10] of 0.005 µM and an IC50 [8] of 0.005 µM.

B12: I-700 (peptide)
peptide: Ac-[αAllylPro]DI[B5(8)]D[TfeGA]AAFN[S8][3Thi][Bta]Q-NH2
modifications: staple 1-4, 4-11
For B12, the IC50 [3] was 0.049 µM and the EC50 [4] was 0.049 µM.

B13: I-790 (peptide)
peptide: Ac-[αAllylPro]D[tBuAla][B5(3)]DDAAFN[PyrS2][3Thi][2Nal]H-NH2
modifications: staple 1-4, 4-11
B13 gave an IC50 [8] of 0.024 µM and an EC50 [9] of 0.024 µM.

B14: I-720 (peptide)
peptide: Ac-[αAllylPro]DI[B5]DEAAFN[S8][3Thi][Bta]-NH2
modifications: staple 1-4, 4-11
B14 showed an IC50 [5] of 0.075 µM and an EC50 [6] of 0.075 µM.

B15: I-1002 (peptide)
peptide: Ac-[αAllylPro]D[tBuAla][B5(18)]D[TfeGA]ALFN[PyrS2″][Phe(2-Cl)][Bta]Q-NH2
modifications: staple 1-4, 4-11
For B15, the IC50 [1] was 29.8 µM, the EC50 [2] was 0.009 µM and the IC50 [7] was 0.009 µM.

B16: I-788 (peptide)
peptide: Ac-[αAllylPro]D[hLeu][B5(3)]DDAAFN[PyrS2][3Thi][Bta]H-NH2
modifications: staple 1-4, 4-11
B16 was tested, and the IC50 [8] was 0.005 µM and the EC50 [9] was 0.005 µM.

B17: I-792 (peptide)
peptide: Ac-[αAllylPro]D[tBuAla][B5(3)]DDAAFN[PyrS2][3Thi]WH-NH2
modifications: staple 1-4, 4-11
For B17, the IC50 [8] was 0.02 µM and the EC50 [9] was 0.02 µM.
